From the supplement of paper PMC10724198
± gives the standard deviation of the averaged measurements.

Assays:
[1] = tested on: Saccharomyces cerevisiae; assay: protein stability index of tFT-peptide fusion (C-terminal peptide) (PSI (0-1 scale)); higher = more stable (slower turnover)
Protocol: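 MPS profiling in S. cerevisiae of the tFT-X12 degron library: putative degron peptides plus stable controls, 12 aa, fused to the C-terminus of a sfGFP-mCherry timer. Cells are FACS-sorted into 8 mCherry/sfGFP bins and deep-sequenced. PSI runs from 0 (unstable) to 1 (stable). Backgrounds are wild type, das1Δ and doa10Δ at 30 °C, and wild type, das1Δ, cdc34-1 and cdc53-1 at 37 °C; 2-3 technical replicates each.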

[2] = tested on: Saccharomyces cerevisiae; assay: as above; details: genetic background: wild type; temperature: 30 C
[3] = genetic background: cdc34-1, temperature: 37 C
[4] = genetic background: cdc53-1, temperature: 37 C
[5] = genetic background: das1 deletion, temperature: 30 C
[6] = genetic background: das1 deletion, temperature: 37 C
[7] = genetic background: doa10 deletion, temperature: 30 C
[8] = genetic background: wild type, temperature: 30 C
[9] = genetic background: wild type, temperature: 37 C
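Further: PSI is a weighted mean of sequencing reads over stability bins, variants kept only with over 10 reads, mCherry proximal and sfGFP distal, peptide attached via GGGS linker.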

Sequence	protein stability index [1, 3]	protein stability index [1, 4]	protein stability index [1, 5]	protein stability index [1, 6]	protein stability index [1, 7]	protein stability index [1, 8]	protein stability index [1, 9]	protein stability index [2]
TCGAKWIFSHIC	0.6 ± 0.054	0.754 ± 0.011	0.646 ± 0.022	0.772 ± 0.016	0.14 ± 0.0052	0.152 ± 0.0092	0.275 ± 0.035	0.267 ± 0.019
YNRKQEAAQKAN	0.671 ± 0.02	0.735 ± 0.029	0.617 ± 0.0072	0.71085 ± 0.00017	0.363 ± 0.025	0.396 ± 0.018	0.606 ± 0.011	0.486 ± 0.14
CRFYIRITRRYS	0.491 ± 0.017	0.576 ± 0.024	0.541 ± 0.041	0.584 ± 0.032	0.156 ± 0.025	0.132 ± 0.033	0.255 ± 0.031	0.21 ± 0.025
SGLPLVILFLCL	0.529 ± 0.0086	0.635 ± 0.04	0.435 ± 0.028	0.625 ± 0.022	0.441 ± 0.026	0.436 ± 0.019	0.576 ± 0.038	0.476 ± 0.0088
SVSRIFRTFSCY	0.627 ± 0.023	0.759 ± 0.054	0.668 ± 0.013	0.681 ± 0.047	0.216 ± 0.035	0.224 ± 0.0094	0.396 ± 0.041	0.321 ± 0.07
LWVSHFVILIVS	0.122 ± 0.032	0.105 ± 0.0073	0.135 ± 0.03	0.236 ± 0.0048	0.0934 ± 0.036	0.108 ± 0.026	0.16 ± 0.0095	0.213 ± 0.03
FLYIPLYCRLSF	0.286 ± 0.034	0.3 ± 0.006	0.302 ± 0.031	0.433 ± 0.019	0.209 ± 0.018	0.147 ± 0.028	0.343 ± 0.011	0.256 ± 0.027
DSPRGRCVRLLV	0.66041 ± 1.4e-06	0.74745 ± 0.00025	0.646 ± 0.013	0.741 ± 0.017	0.253 ± 0.0077	0.308 ± 0.0036	0.599 ± 0.067	0.398 ± 0.03
PRQGGDFVARVG	0.691 ± 0.0076	0.726 ± 0.024	0.638 ± 0.016	0.7341 ± 0.0065	0.631 ± 0.027	0.641 ± 0.015	0.721 ± 0.022	0.7001 ± 0.0014
VRTFVFLVGYCE	0.594 ± 0.032	0.62 ± 0.024	0.406 ± 0.027	0.614 ± 0.023	0.393 ± 0.035	0.394 ± 0.034	0.557 ± 0.04	0.458 ± 0.036
EWSRVVRWNWDG	0.528 ± 0.046	0.69857 ± 0.00044	0.637 ± 0.011	0.707 ± 0.0084	0.121 ± 0.0082	0.148 ± 0.014	0.266 ± 0.015	0.254 ± 0.027
RLVMAVRVAAGG	0.509 ± 0.025	0.532 ± 0.0023	0.347 ± 0.033	0.55975 ± 0.00038	0.327 ± 0.011	0.349 ± 0.015	0.524 ± 0.031	0.451 ± 0.034
SLRICACMTVSW	0.3 ± 0.0079	0.373 ± 0.013	0.404 ± 0.086	0.335 ± 0.0069	0.366 ± 0.0045	0.353 ± 0.012	0.29 ± 0.013	0.353 ± 0.005
LARRASCFWVRC	0.671 ± 0.015	0.721 ± 0.011	0.633 ± 0.026	0.71798 ± 0.00063	0.251 ± 0.019	0.303 ± 0.017	0.559 ± 0.011	0.452 ± 0.0072
FFLLLVSVLSGW	0.177 ± 0.035	0.255 ± 0.047	0.198 ± 0.017	0.3301 ± 0.00052	0.152 ± 0.02	0.185 ± 0.029	0.2942 ± 0.00091	0.316 ± 0.038
ILVLKFLRLLSA	0.525 ± 0.015	0.555 ± 0.024	0.444 ± 0.034	0.563 ± 0.012	0.343 ± 0.017	0.365 ± 0.028	0.5261 ± 0.0015	0.448 ± 0.031
VVAALTPLITVA	0.0655 ± 0.023	0.084 ± 0.0042	0.183 ± 0.021	0.202 ± 0.0041	0.151 ± 0.011	0.179 ± 0.024	0.138 ± 0.0061	0.261 ± 0.04
MVVSLVLCFWAS	0.248 ± 0.026	0.331 ± 0.069	0.257 ± 0.024	0.409 ± 0.016	0.222 ± 0.0091	0.244 ± 0.018	0.414 ± 0.055	0.255 ± 0.045
LAINVRRELLFF	0.613 ± 0.0093	0.723 ± 0.021	0.643 ± 0.029	0.7665 ± 0.007	0.134 ± 0.001	0.148 ± 0.032	0.235 ± 0.007	0.235 ± 0.043
VSSSFSVLVLLF	0.448 ± 0.017	0.545 ± 0.035	0.375 ± 0.037	0.571 ± 0.013	0.317 ± 0.02	0.339 ± 0.026	0.52 ± 0.035	0.421 ± 0.021

Sequence	protein stability index [1, 3]	protein stability index [1, 4]	protein stability index [1, 5]	protein stability index [1, 6]	protein stability index [1, 7]	protein stability index [1, 8]	protein stability index [1, 9]	protein stability index [2]
WRMRCGLIIGLV	0.0313 ± 0.0029	0.0521 ± 0.023	0.155 ± 0.028	0.164 ± 0.0025	0.1 ± 0.025	0.134 ± 0.026	0.125 ± 0.018	0.183 ± 0.032
LIAGTRRIPLFI	0.593 ± 0.048	0.638 ± 0.022	0.515 ± 0.043	0.665 ± 0.0049	0.225 ± 0.0037	0.261 ± 0.053	0.466 ± 0.015	0.406 ± 0.039
GRSVGVTMFKNG	0.614 ± 0.059	0.7332 ± 0.0067	0.627 ± 0.017	0.73 ± 0.018	0.172 ± 0.019	0.206 ± 0.014	0.479 ± 0.016	0.3421 ± 0.0014
FSLWSRRSITVY	0.04947 ± 0.00046	0.0405 ± 0.018	0.104 ± 0.042	0.113 ± 0.019	0.0595 ± 0.02	0.0899 ± 0.026	0.0886 ± 0.049	0.198 ± 0.057
RGFIYCSFVVRL	0.4134 ± 0.00058	0.466 ± 0.029	0.328 ± 0.025	0.532 ± 0.012	0.301 ± 0.016	0.33 ± 0.021	0.465 ± 0.022	0.412 ± 0.0052
PIKIYGYLTTVV	0.597 ± 0.024	0.644 ± 0.023	0.517 ± 0.032	0.653 ± 0.02	0.474 ± 0.032	0.475 ± 0.02	0.6337 ± 0.0023	0.523 ± 0.045
RWRLWVGWWVVG	0.4532 ± 0.0039	0.587 ± 0.0088	0.456 ± 0.022	0.601 ± 0.013	0.1043 ± 0.00095	0.118 ± 0.0076	0.142 ± 0.017	0.12 ± 0.0055
ILLYCVLIDPYS	0.203 ± 0.008	0.2634 ± 0.0013	0.221 ± 0.043	0.352 ± 0.0093	0.219 ± 0.011	0.229 ± 0.025	0.361 ± 0.057	0.344 ± 0.032
KCWSGTVMVRLG	0.675 ± 0.062	0.72 ± 0.017	0.596 ± 0.013	0.723 ± 0.032	0.164 ± 0.0099	0.191 ± 0.036	0.4516 ± 0.0042	0.34 ± 0.0068
GWVVWLTGCLVF	0.512 ± 0.028	0.592 ± 0.014	0.446 ± 0.022	0.586 ± 0.042	0.407 ± 0.0086	0.443 ± 0.017	0.621 ± 0.028	0.4592 ± 0.0025
ALRLVAFFWVPG	0.482 ± 0.063	0.536 ± 0.038	0.427 ± 0.025	0.5392 ± 0.0037	0.415 ± 0.035	0.4099 ± 0.0011	0.5126 ± 0.0048	0.422 ± 0.0081
IGFFFACFFSVF	0.419 ± 0.057	0.444 ± 0.012	0.403 ± 0.021	0.518 ± 0.0099	0.352 ± 0.0041	0.363 ± 0.022	0.43 ± 0.019	0.442 ± 0.065
IWIHSVGVECTS	0.487 ± 0.011	0.494 ± 0.033	0.359 ± 0.036	0.544 ± 0.0068	0.315 ± 0.0044	0.358 ± 0.032	0.5186 ± 0.005	0.486 ± 0.019
CCFVGLRYVLWV	0.431 ± 0.022	0.5 ± 0.018	0.345 ± 0.029	0.531 ± 0.0061	0.278 ± 0.012	0.288 ± 0.0082	0.462 ± 0.015	0.365 ± 0.009
VLFVRGHTLWLM	0.6124 ± 0.0026	0.675 ± 0.01	0.556 ± 0.024	0.702 ± 0.025	0.4861 ± 0.0031	0.458 ± 0.017	0.6344 ± 0.0035	0.505 ± 0.033
RVCVFVLFGLCF	0.352 ± 0.041	0.401 ± 0.0075	0.324 ± 0.04	0.48 ± 0.0059	0.309 ± 0.0047	0.315 ± 0.022	0.441 ± 0.0053	0.383 ± 0.011
LSFLCFSTVLHC	0.557 ± 0.0096	0.606 ± 0.019	0.511 ± 0.017	0.58 ± 0.019	0.46 ± 0.022	0.462 ± 0.03	0.54302 ± 0.00015	0.503 ± 0.073
RMLSLFFPLRTL	0.651 ± 0.068	0.69994 ± 0.00052	0.624 ± 0.02	0.724 ± 0.024	0.196 ± 0.011	0.243 ± 0.048	0.4527 ± 0.0036	0.395 ± 0.035
LLLLRCLWISHA	0.324 ± 0.053	0.441 ± 0.029	0.319 ± 0.039	0.5121 ± 0.0012	0.125 ± 0.019	0.145 ± 0.026	0.258 ± 0.0082	0.244 ± 0.015
